In general, pIC50 refers to the negative decadic logarithm of the IC50, by convention in mol/L.

pIC50: −log10 of the molar value.

This note sets out measurements from the Immune Epitope Database (IEDB).

The experiment has as its target HLA-A*02:01. Description: IEDB peptide-MHC binding, purified MHC/competitive/radioactivity; ≥ and ≤ were set here for values at or beyond the usual limits of such assays. To be noted: source organism: Toxoplasma gondii GT1.

Consider LLSDLSVRL, for which the pIC50 was 6.30.

As for MLYAGAPTTV, the pIC50 was 7.00.

As to YLFKEGVIVV, the pIC50 was 6.30.

Regarding ALAALAPSLEV, the pIC50 was 6.00.

As for YLSPIASPLL, the pIC50 was 7.00.

In the case of FVLELEPEWTV, the pIC50 is 8.00.

Consider ALDINLPNV, for which the pIC50 is 6.30.

Turning to GLAETEVPV, the pIC50 was 6.30.

On to HLMDEAVEV, for which the pIC50 was 6.30.

For the sequence VMSELEFYL, the pIC50 was 7.00.
